Molecular target: T1, SHP-2 (mouse, UniProt P35235 2-593, limits assumed)
T1 construct: Endogenous protein probed in anti-Lck immunoprecipitates; also called tyrosine phosphatase SHP-2
T1 sequence (looked up): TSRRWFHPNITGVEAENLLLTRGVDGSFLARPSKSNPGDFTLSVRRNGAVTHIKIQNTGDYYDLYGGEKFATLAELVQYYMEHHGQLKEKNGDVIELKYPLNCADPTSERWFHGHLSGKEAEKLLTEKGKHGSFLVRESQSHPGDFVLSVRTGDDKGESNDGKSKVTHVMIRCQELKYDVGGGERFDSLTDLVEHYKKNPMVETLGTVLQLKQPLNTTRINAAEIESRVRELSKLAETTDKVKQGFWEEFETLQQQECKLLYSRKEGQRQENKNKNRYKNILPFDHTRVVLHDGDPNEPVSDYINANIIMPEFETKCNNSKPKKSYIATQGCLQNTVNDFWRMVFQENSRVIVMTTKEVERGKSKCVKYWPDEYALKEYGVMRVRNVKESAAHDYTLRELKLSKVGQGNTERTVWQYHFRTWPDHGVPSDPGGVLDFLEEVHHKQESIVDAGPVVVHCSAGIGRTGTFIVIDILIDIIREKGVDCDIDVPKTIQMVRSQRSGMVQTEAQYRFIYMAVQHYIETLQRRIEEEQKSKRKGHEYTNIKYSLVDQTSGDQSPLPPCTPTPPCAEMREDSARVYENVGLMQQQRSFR
Test: co-immunoprecipitation with anti-Lck from 5C.C7 T cell lysates, Western blot
Protocol: (A) Western blot analyses of anti-Lck immuno-precipitates to detect site-specific phosphorylation. Phosphorylation of Lck at the activating Y394 or inhibitory Y505 before antigen stimulation were probed with specific antibodies. […] Membranes were stripped and re-probed for Lck as loading controls. (B) Induction of ERK phosphorylation by the antagonist MCC 99R. Virally-infected T cells were mixed with CH27 cells alone or CH27 cells preloaded with 10 μM MCC 99R, spun down to facilitate rapid T:APC contact, incubated at 37° C. for 5 minutes, and analyzed for ERK phosphorylation by Phosphor-Flow. Cells were gated on GFP and CD4 for virally-infected T cells. […] (D) Western blot analyses of anti-Lck immuno-precipitates to detect Lck serine phosphorylation before antigen stimulation. […] Double selected 5C.C7 T cells were mixed with peptide pre-loaded CH27 cells (10 μM MCC 99R or 1 μM MCC) by quick spin and incubated at 37° C. for 5 mins. SHP-1 was co-precipitated with Lck whereas SHP-2 was undetectable under the same condition.

- binding result: no binding
B1: Lck (enzyme, mouse, UniProt P06240 2-509, looked up)
chain: GCVCSSNPEDDWMENIDVCENCHYPIVPLDSKISLPIRNGSEVRDPLVTYEGSLPPASPLQDNLVIALHSYEPSHDGDLGFEKGEQLRILEQSGEWWKAQSLTTGQEGFIPFNFVAKANSLEPEPWFFKNLSRKDAERQLLAPGNTHGSFLIRESESTAGSFSLSVRDFDQNQGEVVKHYKIRNLDNGGFYISPRITFPGLHDLVRHYTNASDGLCTKLSRPCQTQKPQKPWWEDEWEVPRETLKLVERLGAGQFGEVWMGYYNGHTKVAVKSLKQGSMSPDAFLAEANLMKQLQHPRLVRLYAVVTQEPIYIITEYMENGSLVDFLKTPSGIKLNVNKLLDMAAQIAEGMAFIEEQNYIHRDLRAANILVSDTLSCKIADFGLARLIEDNEYTAREGAKFPIKWTAPEAINYGTFTIKSDVWSFGILLTEIVTHGRIPYPGMTNPEVIQNLERGYRMVRPDNCPEELYHLMMLCWKERPEDRPTFDYLRSVLDDFFTATEGQYQPQP
notes: Endogenous protein in T cell lysates; the phosphorylation state varies with the condition
